# Assay results: the DeepSol protein solubility set
# Assay: soluble on expression in E. coli; label from the status in PepcDB or PDB records
row,Sequence,soluble on expression in E. coli
1,MTVPLTTRDRIALIPIAEIHILNPRTRNKKIHHELIENIKTVGLKRPITVSRRVSTQGSFNYDLVCGQGRLEAFLALEATEIPAFVIDSAEEDCLVMSLVENVARRQHRPIDLMNEVGRLKGRGKTDAEIATIIGSTSSWVNMIVNLIERGEEKLLSAVETGLIPLSMATDIARSSESDIQDLLTDAYERGIRGKKITKLRHLLELRAKKDKLVRGNPLGVSQNKKKRLTPTDLRHLFEREAERQRLMVKKAAFTHDRVVFSIQAIKELLAVSDFEKLLSTEHLDSMPKLIQARLSNRGGL,not soluble
2,MGSDKIHHHHHHMPDTEEIARDSVVPPDVRRQAVNWLVELQSDIVTDETRDQWQKWRMSHPDHEYAWQQVEVFSRKLRGLPSPLAHAALTPPHSSSRRRAIKALTVLIFLGGGTWVAGEGRLWCWWPEDYCTGIGEHRAVTLSDGTGIELNSGSAITVNFDDTRRLIRLMNGEIMVTTAPDPRLANGIGAARPLLIETAQGILRAIGTRFTVRQFDVSQQGKSSVAVFEGAVEIQPITGRLRQLEVGQQAAFTRDGVIAVGMACEADTAWRQGMIVARDMPLIDFLAELGRHRSGWLSCDPAVAQLKVTGTYPLADIGKILAILQKTLPIDVQLFTRYWIRVGARQEDT,not soluble
3,MGCMIQSFRCKSTQAMFEGECPQRFSAIQAVAERKLAQLEAAQTLDFLRSPPGNRLEKLAGDREGQWSIRINAQWRICFTWSDLDPADVEIVDYH,not soluble
4,MPVAIVTGASSGIGRAAALLLARNNYKLSLTGRNVAALNELAGQIVSAGSDKNDVLVTAVELASEEAPKTIVDATVQKFGRIDTLINSAGILRAGPVLDSGIEVYDELMNVNVRSLIRLTRAALPHIITTKGTVVNVSSINGPCPFPNVTYYCMSKSAVDQFTKCLALEMAPNGVRVNAVCPGVTVTNLHRTSGQDETTYSAFLERSKTTHALGRPGDANEVAEAIYFLASEKSSFTTGELLRVDGGRGIMHPR,soluble
5,MGSDKIHHHHHHMKRPPKKPATDRSFVVALSRGLEVLRAFGPNDGLLGNQELAARTKLPKPTISRLTYTLTKLGYLTQVPRFEKYQLAPAAMSLGYAALANLGVRHLSQPYRDELMQQTGGAVAVGARDRISMIYVGQARSSLTVGVQLDVGSRIPIATTAMGRAYLCALQSEERAVLMKEMREYYGSRWPRIKEGIERSEEMVAKHGFAISVGEWQDDVHAAGVALTLNDGTGPYAFNCGAPAFRFTEERLINDIGPRLVAMVRKIEAALGGVAAPQPRKSDNKRTKGGKVARVVEGIR,not soluble
6,MGHHHHHHSHMEKALLGACDCTQIVKPSGVHLKLVLRFSDFGKAMFKPMRQQRDEETPVDFFYFIDFQRHNAEIAAFHLDRILDFRRVPPTVGRIVNVTKEILEVTKNEILQSVFFVSPASNVCFFAKCPYMCKTEYAVCGNPHLLEGSLSAFLPSLNLAPRLSVPNPWIRSYTLAGKEEWEVNPLYCDTVKQIYPYNNSQRLLNVIDMAIFDFLIGNMDRHHYEMFTKFGDDGFLIHLDNARGFGRHSHDEISILSPLSQCCMIKKKTLLHLQLLAQADYRLSDVMRESLLEDQLSPVLTEPHLLALDRRLQTILRTVEGCIVAHGQQSVIV,soluble
7,MQVSDFHFELPDELIARYPKAERTASRLLQLDGNSGQLVDGTFKDVLELVEPGDLLVFNNTRVIPARMFGRKASGGKLEVLVERMLDEHTILAHVRSSKPPKPGTELYLGENDEFHAVMQARHDALFEIRFTAETVVLDILNQIGHMPLPPYIDRPDEEADKERYQTVYNQKPGAVAAPTAGLHFDQALLEQIQAKGVELAYVTLHVGAGTFQPVRVENIHDHHMHAEYVEVPQEVVDAITATKARGGRVVAVGTTSVRSLESAAQDALQKGTELKPFFGDTEIFIFPGYQYQLVDCLITNFHLPESTLIMLVSAFAGYEHTMAAYEHAVKEQYRFFSYGDAMFIRKQMTKA,not soluble
8,MGSDKIHHHHHHMANLLSTCTSESGNIQHISPQNAGWEYVGFDVWQLKAGESITLPSDERERCLVLVAGLASVKAADSFFYRIGQRMSPFERIPAYSVYLPHHTEAKVTAETDLELAVCSAPGFGELPVRLISPQEVGVEHRGKGRNQRLVHNILPDSQLADSLLVVEVYTNEGDTSSWPAHKHDTAVEGQETYLEETYYHRFNPPQGFCLQRVYTDDRSLDECMAVYNRDVVKVPKGYHPVATIAGYDNYYLNVMAGPLRKWRFTWEENHAWINSPDYPR,not soluble
9,MIQSGKIYIRGRTVVFMIIRNEQDLEGLRKIGRIVALAREEMKKEAKPGMTTKELDLIGKKVLDEHGAISAPEKEYDFPGVTCISVNEEVAHGIPGDRVLKEGDLVNVDVSAALDGYYADTGISFVLGEDEAKEKLCQAAVDAFWAAMKKVKAGSKQNQIGRAVSNFAHKNGYNVIQNLTGHGIGLSLHEAPNHILSYFDPMDNALLKDGLVIAVEPFISMKADHIIERGDDGWTFVTPDKSLVAQCEHTVVVTRGEPIILTEI,soluble
10,MVRSMLYATDLGLYAPYVMQHALALARTFDAGLYVVHVVEPMGLFAESVLQSYLGEEALQELHGKGAHAFMEGIEQRMLDGFREELGEGHSDLSLIRTVRVVQGEPASVIIEQAHKLEVDLLVLGRHSASAQEGASIGRTAARILQSSGVPVYMVPIMSKALCQKGC,not soluble
11,MSLALGSYIERRGELETYFDRTAADTWAKLTSDAPVSGIRATVRAGRDEMRNTLLSWLPADMTGTRLLDAGCGTGALSIEAARRGAKIVAIDLSPTLVAVARERLPDDIDPAAIDFRSGDMLDPELGEFDFVVAMDSLIHYLPHDICRMLATLASRTRQSMAVTFAPKTPLLTLMHFVGGFFPRADRAPAIEPISEKTLRGLVAEDPLLAQWQPGRTHRVSSGFYTSQALEMVREGHHHHHH,soluble
12,MTKIGINGFGRIGRNVFRAALNNSEVEVVAINDLTDAKTLAHLLKYDTVHGTLNAEVSANENSIVVNGKEIKVIAERDPAQLPWSDYGVEVVVESTGRFTKKSDAEKHLGGSVKKVIISAPASDEDITVVMGVNHEQYDAANHNVVSNASCTTNCLAPFAKVLNEKFGVKRGMMTTIHSYTNDQQILDLPHKDLRRARAAAENMIPTSTGAAKAVALVLPELKGKLNGGAVRVPTANVSLVDLVVELDKEVTVEEVNAAFKAAAEGELKGILGYSEEPLVSIDYNGCTASSTIDALSTMVMEGNMVKVLSWYDNETGYSNRVVDLAAYMTSKGL,soluble
13,MTEQTILMGNLNEVAKKAAQWLINRKPIKSIIDWGISFSLWPPHFTTSCCGTEFGAFAAARFDAERYGMLPFSSARQSNILILEGTLSRKMGRAARIVYDQMPEPKYVIALGACILEGGIFWNSYNTVLPSDIGIPVDLYVPGCPIRPEAVARAVLMLQKKIRTQGALKT,not soluble
14,MKTHKTKNDLPSNAKSTVIGILNESLASVIDLALVTKQAHWNLKGPQFIAVHELLDTFRTQLDNHGDTIAERVVQLGGTALGSLQAVSSTTKLKAYPTDIYKIHDHLDALIERYGEVANMIRKAIDDSDEAGDPTTADIFTAASRDLDKSLWFLEAHVQEKS,soluble
15,MYDVVGVRFKKAGKVYYFDPNQFDISENEFVIVETVRGIEYGKVVITKKQVDENDVVLPLKKVIRIANENDRTIVEENKHAAKEAYQVCQQKVVEHNLDMKLVDVEYTFDRNKIIFYFTADGRIDFRELVKDLAAIFRTRIELRQIGVRDEAKMLGGIGPCGRMLCCSTFLGDFEPVSIKMAKDQNLSLNPAKISGLCGRLMCCLKYENDEYEAAKEQLPDLDQRIQTPHGTGRVIGLNILERLIQVELVDKERIVEYTLDELVNKGVVSSQTTDLEHHHHHH,not soluble
16,MSLDSHRISVLHVDDEPGLGETTAEFLRQQSDGFSVETATSTSEGLKRLTEAPFDCIVSDYDMADMDGIEFLRAVRAEYPDLPFVLFTGKGSEEVASEAVSAGVSDYLQKRGGTERYTLLANRITNLVTQHRAEERLRTRVQQQEAVADLGQYALTGCGLDALFERAVESVAAGLNTEYSKVLEYRPADNKFLLRAGVGWQSGLVGEAAVGAGEESQAGYTLQTEEPVVVEDLRTESRFSGPSLLLDHGVVSGISVIIGTTTEPWGVLGAHTSERRPFTKDDITFVRGVANTLTNAIEREQLEGTLRQAEQRYKTLLENFPGGGVFLFDDDLRYLIARGEGLSAFGLTPADVEGKTLAEVFPPAVVERQKPKYRAALDGETQVWTQEYEGKQYRLSTLPVTGSSDKQLGMVVSMDITGLSASEGHHHHHH,soluble
17,IQKMANSFQKLASSVVLFETEINEFLVLFTDTKNKREESEPVRQVSTTQEYHQVTLDQQHYFNHKLSDYFRLFKDKTFFFEII,not soluble
18,MSIKKSPVYNVIAVPVEKVQANDYNPNVVAPPEMRLLELSIWEDGFTMPCVCYYDKEKDVYILVDGFHRYSVLKTSKRIFQRENGMLPIVVIEKDLSNRMSSTIRHNRARGTHN,soluble
19,GSMPAIMTMLADHAARQLLDFSQKLDINLLDNVVNCLYHGEGAQQRMAQEVLTHLKEHPDAWTRVDTILEFSQNMNTKYYGLQILENVIKTRWKILPRNQCEGIKKYVVGLIIKTSSDPTCVEKEKVYIGKLNMILVQILKQEWPKHWPTFISDIVGASRTSESLCQNNMVILKLLSEEVFDFSSGQITQVKAKHLKDSMCNEFSQIFQLCQFVMENSQNAPLVHATLETLLRFLNWIPLGYIFETKLISTLIYKFLNVPMFRNVSLKCLTEIAGVSVSQYEEQFETLFTLTMMQLKQMLPLNTNIRLAYSNGKDDEQNFIQNLSLFLCTFLKEHGQLLEKRLNLREALMEALHYMLLVSEVEETEIFKICLEYWNHLAAELYRESPFSTSASPLLSGSQHFDIPPRRQLYLTVLSKVRLLMVSRMAKPEEVLVVENDQGEVVREFMKDTDSINLYKNMRETLVYLTHLDYVDTEIIMTKKLQNQVNGTEWSWKNLNTLCWAIGSISGAMHEEDEKRFLVTVIKDLLGLCEQKRGKDNKAIIASNIMYIVGQYPRFLRAHWKFLKTVVNKLFEFMHETHDGVQDMACDTFIKIAQKCRRHFVQVQVGEVMPFIDEILNNINTIICDLQPQQVHTFYEAVGYMIGAQTDQTVQEHLIEKYMLLPNQVWDSIIQQATKNVDILKDPETVKQLGSILKTNVRACKAVGHPFVIQLGRIYLDMLNVYKCLSENISAAIQANGEMVTKQPLIRSMRTVKRETLKLISGWVSRSNDPQMVAENFVPPLLDAVLIDYQRNVPAAREPEVLSTMAIIVNKLGGHITAEIPQIFDAVFECTLNMINKDFEEYPEHRTNFFLLLQAVNSHCFPAFLAIPPAQFKLVLDSIIWAFKHTMRNVADTGLQILFTLLQNVAQEEAAAQSFYQTYFCDILQHIFSVVTDTSHTAGLTMHASILAYMFNLVEEGKISTPLNPGNPVNNQMFIQDYVANLLKSAFPHLQDAQVKLFVTGLFSLNQDIPAFKEHLRDFLVQIKEFAGEDTSDLFLEERETALRQAQEEKHKLQMSVPGILNPHEIPEEMCD,soluble
20,MGHHHHHHSHPRRLAWCSIDWEQVCLLQRLGAGGFGSVYKATYRGVPVAIKQVNKCTKNRLASRRSFWAELNVARLRHDNIVRVVAASTRTPAGSNSLGTIIMEFGGNVTLHQVIYGAAGHPEGDAGEPHCRTGGQLSLGKCLKYSLDVVNGLLFLHSQSIVHLDLKPANILISEQDVCKISDFGCSEKLEDLLCFQTPSYPLGGTYTHRAPELLKGEGVTPKADIYSFAITLWQMTTKQAPYSGERQHILYAVVAYDLRPSLSAAVFEDSLPGQRLGDVIQRCWRPSAAQRP,not soluble
21,QERFVHVHKMITTGTIEEKIDVMLESKQTLNDQIIQSENWITELSTQELEEL,soluble
